The term Kd denotes the equilibrium constant for the complex coming apart. Read a low Kd as higher affinity.

The experiment deals with T1, Soluble mouse EPOR chimera protein (mouse, UniProt P14753 25-249).
T1 construct: Bought reagent (R&D Systems), amine-coupled to a carboxymethylated dextran SPR chip; it says only 'soluble' and 'chimera'; also called Receptor mouse EPOR chimera protein; erythropoietin receptor
T1 sequence (looked up): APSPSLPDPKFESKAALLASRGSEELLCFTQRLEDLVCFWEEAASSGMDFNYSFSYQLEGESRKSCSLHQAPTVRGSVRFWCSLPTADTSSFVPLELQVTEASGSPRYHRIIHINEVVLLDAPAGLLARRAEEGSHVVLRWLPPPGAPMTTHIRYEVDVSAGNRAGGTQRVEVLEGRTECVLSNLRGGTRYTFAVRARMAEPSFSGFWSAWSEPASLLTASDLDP
As to the kind of experiment: SPR (Reichert SR 7500C), mouse EPOR chimera amine-coupled on chip, peptide flowed at 5, 2.5 and 1.25 uM. The method, then: Specifically, the real-time SPR analysis was performed using Reichert SPR Biosensor SR 7500C equipment (Reichert Inc., NY, USA). Receptor mouse EPOR chimera protein (Soluble mouse EPOR chimera protein)(R&D Systems, Minneapolis, Minn., USA) was covalently bonded to a chip (BR-1005-39, Pharmacia Biosensor AB) coated with carboxy methylated dextran matrix by an amine coupling procedure using an amine coupling kit (BR-1000-50, GE Healthcare, USA) according to the manufacturer's manual. Peptides having concentrations of 5, 2.5 and 1.25 μM according to the present disclosure and scrambled peptides were tested by flowing at a flow rate of 5 μl/minute. In addition, the experiment was independently repeated to increase the accuracy. In addition, DMSO was flowed at 5 μl/minute to normalize the signal. After sufficiently inducing the binding of the peptide of an aspect to the receptor, regeneration was induced by injecting 20 μl/minute of 25 mM acetic acid into a sensor chip.

B1: SY-2 (peptide)
peptide: LQLHVLKAVSGLRTLTMIRRALG
notes: Synthetic 23-mer made as a monomer by solid phase synthesis; also called erythropoietin-induced peptide
B1 yielded a dissociation constant Kd of 1550 µM.

B2: SY-3 (peptide)
peptide: LQLHVLKAVAGLRTLTMIRRALA
notes: as for B1
As to B2, binding was put at a Kd of 2160 µM.

B3: SY-1 (peptide)
peptide: LQLHVLKAVSGLRTLTTLLRALG
notes: Synthetic 23-mer made as a monomer by solid phase synthesis; No terminal protecting group is stated for the peptide as tested; also called erythropoietin-induced peptide
B3 registered a Kd of 1410 µM.

Source of the values: patent US20210371484A1 (SYLUS, published 2021).
